assay: soluble on expression in E. coli; label from the status in PepcDB or PDB records

Row | Sequence | soluble on expression in E. coli
1 | GSGAVSIASSKVSAQYTSTVPPSHYIETWAKTHPEWKAVEVATGFLGSQKIVTEDWTYKKLNETANQVANLIIHASLHGRAIAVSLDRSLIAFAIIVGIMKSGNTYVPIEAGLPNDRKSFLLRDSRAAMAFVCDNNFDGVELPPETKVLDTKNQSFIENLSTQDTSDILNNYPENLDAYLLYTSGSTGTPKGVRVSRHNLSSFSDAWGKLIGNVAPKSLELGGVGKFLCLASRAFDVHIGEMFLAWRFGLCAVTGERLSMLDDLPRTFRELGVTHAGIVPSLLDQTGLVPEDAPHLVYLGVGGEKMTPRTQQIWSSSDRVALVNVYGPTEVTIGCSAGRILPDSDTRCIGHPLGDSVAHVLAPGSNEHVKKGMAGELVIEGSLVANGYLNRPDAKGFCDINGRKMYRTGDIVRMDADSSILFLGRKDEQVKVRGQRLELGEVSEVIRSLSPTDIDVVTLLLNHPGTSKQFLVSFVASSGAAVRGELRWINENYKEINNSLRQACEQTLPAYMVPDFIIPISFIPLRDTSAKTDAKALEHMFHTLSLGELFGESSSLVNKPTT | soluble
2 | GSHMAKTLKDLDGWQVIITDDQGRVIDDNNRRRSRKRGGENVFLKRISDGLSFGKGESVIFNDNVTETYSVYLIHEIRLNTLNNVVEIWVFSYLRWFELKPKLYYEQFRPDLIKEDHPLEFYKDKFFNEVNKSELYLTAELSEIWLKDFIAVGQILPESQWNDSSIDKIEDRDFLVRYACEPTAEKFVPIDIFQIIRRVKEMEPKQSDEYLKRVSVPVSGQKTNRQVMHKMG | soluble
3 | GSHMAPGFTISFVNKTIIVTGGNRGIGLAFTRAVAAAGANVAVIYRSAADAVEVTEKVGKEFGVKTKAYQCDVSNTDIVTKTIQQIDADLGPISGLIANAGVSVVKPATELTHEDFAFVYDVNVFGVFNTCRAVAKLWLQKQQKGSIVVTSSMSSQIINQSSLNGSLTQVFYNSSKAACSNLVKGLAAEWASAGIRVNALSPGYVNTDQTAHMDKKIRDHQASNIPLNRFAQPEEMTGQAILLLSDHATYMTGGEYFIDGGQLIW | soluble
4 | GSHMASMLPEETILDKLPKDFQERITSSKWKDRVEALEEFWDSVLSQTKKLKSTSQNYSNLLGIYGHIIQKDANIQAVALAAQSVELICDKLKTPGFSKDYVSLVFTPLLDRTKEKKPSVIEAIRKALLTICKYYDPLASSGRNEDMLKDILEHMKHKTPQIRMECTQLFNASMKEEKDGYSTLQRYLKDEVVPIVIQIVNDTQPAIRTIGFESFAILIKIFGMNTFVKTLEHLDNLKRKKIEETVKTL | soluble
5 | GSHMSAGIGESRTELLTWLNGLLNLNYKKIEECGTGAAYCQIMDSIYGDLPMNRVKFNATAEYEFQTNYKILQSCFSRHGIEKTVYVDKLIRCKFQDNLEFLQWLKKHWIRHKDESVYDPDARRKYR | soluble
6 | GSHMSRLLEDFRNQRYPNLQLRDLANHIVEFSQDQHGSRFIQQKLERATAAEKQMVFSEILAAAYSLMTDVFGNYVIQKFFEFGTPEQKNTLGMQVKGHVLQLALQMYGCRVIQKALESISPEQQQEIVHELDGHVLKCVKDQNGNHVVQKCIECVDPVALQFIINAFKGQVYSLSTHPYGCRVIQRILEHCTAEQTTPILDELHEHTEQLIQDQYGNYVIQHVLEHGKQEDKSILINSVRGKVLVLSQHKFASNVVEKCVTHATRGERTGLIDEVCTFNDNALHVMMKDQYANYVVQKMIDVSEPTQLKKLMTKIRKNMAAL | soluble
7 | GSHMSSLEKRLGKNEYFIITKSSPVRAILNDFAANYSIPVFISSSVNDDFSGEIKNEKPVKVLEKLSKLYHLTWYYDENILYIYKTNEISRSIITPTYLDIDSLLKYLSDTISVNKNSCNVRKITTFNSIEVRGVPECIKYITSLSESLDKEAQSK | soluble
8 | GSHMVPISFVFNRFPRMVRDLAKKMNKEVNFIMRGEDTELDRTFVEEIGEPLLHLLRNAIDHGIEPKEERIAKGKPPIGTLILSARHEGNNVVIEVEDDGRGIDKEKIIRKAIEKGLIDESKAATLSDQEILNFLFVPGFSTKEKVSEVSGRGVGMDVVKNVVESLNGSISIESEKDKGTKVTIRLPLTLAIIQALLVKVNNLVYAIPIANIDTILSISKEDIQRVQDRDVIVIRGEVIPVYRLWEVLQIEHKEELEEMEAVIVRVGNRKYGIVVDDLLGQDDIVIKSLGKVFSEVKEFSGAAILGDGSIALIINVSGIV | soluble
9 | GSHNSHMKLQEVEIRNKDLEGQLSEMEQRLEKSQSEQDAFRSNLKTLLEILDGKIFELTELRDNLAKLLECS | soluble
10 | GSLPEVLQAPVGSSILVQCHYRLQDVKAQKVWCRFLPEGCQPLVSSAVDRRAPAGRRTFLTDLGGGLLQVEMVTLQEEDAGEYGCMVDGARGPQILHRVSLNILPP | soluble
11 | GSMDQNTTEPVAATETLAEVPEHVLRGLPEEVRLFPSAVDKTRIGVWATKPILKGKKFGPFVGDKKKRSQVKNNVYMWEVYYPNLGWMCIDATDPEKGNWLRYVNWACSGEEQNLFPLEINRAIYYKTLKPIAPGEELLVWYDGEDNPEIAAAIEEERASARS | soluble
12 | GSMNPEEKTVMLYNEYAEQAVLGSILTEPELIKECPLTPEHFSPGKHFNIYFTMQDLDRKGQSVDFTSIAARVGEKLPQLGGFGYLTELAASVASTTTFKQHCQTVSEYFQKRKAISIAQQIIENVNESDDGPVKPIQEAVSELMEIEASGTDDDDGSIDEALVTVYEEIESADGNITGVPSGFTELDRMTYGYKRRNFVLIAARPSMGKTAFALKQAKNMSDNDDVVNLHSLEMGKKENIKRLIVTAGSINAQKIKAARRDFASEDWGKLSMAIGEISNSNINIFDKAGQSVNYIWSKTRQTKRKNPGKRVIVMIDYLQLLEPAKANDSRTNQISQISRDLKKMARELDVVVIALSQLSRQVEQRQDKRPMLSDLRESGQLEQDADIIEFLYRDDYYDKESESKNIVEVIIAKHRDGPVGTVSLAFIKEYGNFVNLERRFDDR | soluble
13 | GSMTDGDYDYLIKLLALGDSGVGKTTFLYRYTDNKFNPKFITTVGIDFREKRVVYDTQGADGASGKAFKVHLQLWDTAGLERFRSLTTAFFRDAMGFLLMFDLTSQQSFLNVRNWMSQLQANAYCENPDIVLIGNKADLPDQREVNERQARELAEKYGIPYFETSAATGQNVEKSVETLLDLIMKRMEKCVEKTQVPDTVNGGNSGKLDGEKPAEKKCAC | soluble
14 | GSMYQLQFINLVYDTTKLTHLEQTNINLFIGNWSNHQLQKSICIRHGDDTSHNQYHILFIDTAHQRIKFSSFDNEEIIYILDYDDTQHILMQTSSKQGIGTSRPIVYERLV | soluble
15 | GSPDPEIFRQRFRQFGYQDSPGPREAVSQLRELCRLWLRPETHTKEQILELVVLEQFVAILPKELQTWVRDHHPENGEEAVTVLEDLESELDD | soluble
16 | GSPEFPPTIQEIKQKIDSYNSREKHCLGMKLSEDGTYTGFIKVHLKLRRPVTVPAGIRPQSIYDAIKEVNPAATTDKRTSFYLPLDAIKQMHISSTTTVSEVIQGLLDKFMVVDNPQKFALFKRIHKDGQVLFQKLSIADYPLYLRLLAGPDTDVLSFVLKEN | soluble
17 | GSPGIHMLGGSSDAGLATAAARGQVETVRQLLEAGADPNALNRFGRRPIQVMMMGSAQVAELLLLHGAEPNCADPATLTRPVHDAAREGFLDTLVVLHRAGARLDVCDAWGRLPVDLAEEQGHRDIARYLHAATGD | soluble
18 | GSQDVKCSLGYFPCGNITKCLPQLLHCNGVDDCGNQADEDNCG | soluble
19 | GSRRLLEETLAPFRLNHDQLAAVQAQMRKAMAKGLRGEASSLRMLPTFVRATPDGSERGDFLALDLGGTNFRVLLVRVTTGVQITSEIYSIPETVAQGSGQQLFDHIVDCIVDFQQKQGLSGQSLPLGFTFSFPCRQLGLDQGILLNWTKGFKASDCEGQDVVSLLREAITRRQAVELNVVAIVNDTVGTMMSCGYEDPRCEIGLIVGTGTNACYMEELRNVAGVPGDSGRMCINMEWGAFGDDGSLAMLSTRFDASVDQASINPGKQRFEKMISGMYLGEIVRHILLHLTSLGVLFRGQQIQRLQTRDIFKTKFLSEIESDSLALRQVRAILEDLGLPLTSDDALMVLEVCQAVSQRAAQLCGAGVAAVVEKIRENRGLEELAVSVGVDGTLYKLHPRFSSLVAATVRELAPRCVVTFLQSEDGSGKGAALVTAVACRLAQLTR | soluble
20 | GSRSEPAKVVDIRIDTSAERKPISPYIYGSNQELDATVTAKRFGGNRTTGYNWENNFSNAGSDWLHYSDTYLLEDGGVPKGEWSTPASVVTTFHDKALSKNVPYTLITLQAAGYVSADGNGPVSQEETAPSSRWKEVKFEKGAPFSLTPDTEDDYVYMDEFVNYLVNKYGNASTPTGIKGYSIDNEPALWSHTHPRIHPDNVTAKELIEKSVALSKAVKKVDPYAEIFGPALYGFAAYETLQSAPDWGTEGEGYRWFIDYYLDKMKKASDEEGKRLLDVLDVHWYPEARGGGERICFGADPRNIETNKARLQAPRTLWDPTYIEDSWIGQWKKDFLPILPNLLDSIEKYYPGTKLAITEYDYGGGNHITGGIAQADVLGIFGKYGVYLATFWGDASNNYTEAGINLYTNYDGKGGKFGDTSVKCETSDIEVSSAYASIVGEDDSKLHIILLNKNYDQPTTFNFSIDSSKNYTIGNVWAFDRGSSNITQRTPIVNIKDNTFTYTVPALTACHIVLEAAEP | soluble
21 | GSSDVQYTEVQVSSAESHKDLGKKDTETVYSEVRKAVPDAVESRYSRTEGSLDGT | soluble
22 | GSSGSSGMPMTLGYWDIRGLAHAIRLFLEYTDSSYEEKRYTMGDAPDYDQSQWLNEKFKLGLDFPNLPYLIDGSHKITQSNAILRYLGRKHNLCGETEEERIRVDILENQLMDNRMVLARLCYNADFEKLKPGYLEQLPGMMRLYSEFLGKRPWFAGDKITFVDFIAYDVLERNQVFEAKCLDAFPNLKDFIARFEGLKKISDYMKTSRFLPRPMFTKMATWGSNSGPSSG | soluble
23 | GSSGSSGTRTYDREGFKKRAACLCFRSEQEDEVLLVSSSRYPDQWIVPGGGMEPEEEPGGAAVREVYEEAGVKGKLGRLLGIFENQDRKHRTYVYVLTVTEILEDWEDSVNIGRKREWFKVEDAIKVLQCHKPVHAEYLEKLKLG | soluble
24 | GSSGSSGYQPTYNPTLPYKRPIPGGLSVGMSVYIQGMAKENMRRFHVNFAVGQDDGADVAFHFNPRFDGWDKVVFNTMQSGQWGKEEKKKSMPFQKGKHFELVFMVMPEHYKVVVNGNSFYEYGHRLPVQMVTHLQVDGDLELQSINFLGGQPAAAPY | soluble
25 | GSSRGIPPKIEALPSDISIDEGKVLTVACAFTGEPTPEVTWSCGGRKIHSQEQGRFHIENTDDLTTLIIMDVQKQDGGLYTLSLGNEFGSDSATVNIHIRSI | soluble
26 | GSTVPYTITVNGTSQNILSNLTFNKNQNISYKDLEGKVKSVLESNRGITDVDLRLSKQAKYTVNFKNGTKKVIDLKSGIYTANLINSSDIKSININID | soluble
27 | GSYNKPSETVIPESVDGLQENLDVVVSLAERHYYNCDFKMCYKLTSVVMEKDPFHASCLPVHIGTLVELNKANELFYLSHKLVDLYPSNPVSWFAVGCYYLMVGHKNEHARRYLSKATTLEKTYGPAWIAYGHSFAVESEHDQAMAAYFTAAQLMKGCHLPMLYIGLEYGLTNNSKLAERFFSQALSIAPEDPFVMHEVGVVAFQNGEWKTAEKWFLDALEKIKAIGNEVTVDKWEPLLNNLGHVCRKLKKYAEALDYHRQALVLIPQNASTYSAIGYIHSLMGNFENAVDYFHTALGLRRDDTFSVTMLGHCIEMYIGDSEAYIGADIK | soluble

From the DeepSol protein solubility set
